The results in this text go back to patent US20260022166A1 (JIANGSU HENGRUI MEDICINE, published 2026).

Assay [1] deals with T1, His-tagged human TSLP antigen (huTSLP-his) (human).
T1 construct: also called Human TSLP-his
As to the kind of experiment: ELISA, coated huTSLP-his. (An ELISA detects its analyte on a solid surface through an enzyme-linked reagent.)
Description: After discarding the liquid, 200 μl/well of blocking solution with 5% skimmed milk (Bright Dairy skimmed milk powder) diluted in PBS was added and incubated in a 37° C. incubator for 2 hours for blocking. After blocking was over, the blocking solution was discarded, and the plates were washed with PBST buffer (PBS containing 0.1% tween-20, pH 7.4) for 3 times. […] After incubation was over, the plates were washed with PBST for 3 times. […] After washing the plate with PBST for 6 times, 50 μl/well TMB chromogenic substrate (KPL, 52-00-03) was added and incubated at room temperature for 10-15 min, and 50 μl/well 1 M H₂SO₄ was added to stop the reaction. The absorption value was read by using a NOVOStar microplate reader at 450 nm.

The target of a further assay is native TSLP (human, UniProt Q969D9 29-159). The experiment in a line: cell-based or functional assay.
For assay [2], the target named is Fc-tagged human TSLP antigen (huTSLP-Fc) (human). The experiment in a line: cell-based or functional assay.

B1: hu179-08 (antibody, human IgG1, kappa)
heavy: EVQLVQSGAEVKKPGSSVKVSCKASGYTFSNYLIEWVRQAPGQGLEWIGVIDPGNGDTNYNENFKGRATLTADKSTSTAYIELSSLRSEDTAVYYCAREDNTGTAFDYWGQGTTVTVSSASTKGPSVFPLAPSSKSTSGGTAALGCLVKDYFPEPVTVSWNSGALTSGVHTFPAVLQSSGLYSLSSVVTVPSSSLGTQTYICNVNHKPSNTKVDKKVEPKSCDKTHTCPPCPAPELLGGPSVFLFPPKPKDTLYITREPEVTCVVVDVSHEDPEVKFNWYVDGVEVHNAKTKPREEQYNSTYRVVSVLTVLHQDWLNGKEYKCKVSNKALPAPIEKTISKAKGQPREPQVYTLPPSRDELTKNQVSLTCLVKGFYPSDIAVEWESNGQPENNYKTTPPVLDSDGSFFLYSKLTVDKSRWQQGNVFSCSVMHEALHNHYTQKSLSLSPGK
light: DIVMTQTPLSLSVTPGQPASISCKASQSVSSDVTWYLQKPGQSPQLLIYYVSNHYTGVPDRFSGSGSGTDFTLKISRVEAEDVGVYYCQQHHRFPLTFGQGTKLEIKRTVAAPSVFIFPPSDEQLKSGTASVVCLLNNFYPREAKVQWKVDNALQSGNSQESVTEQDSKDSTYSLSSTLTLSKADYEKHKVYACEVTHQGLSSPVTKSFNRGEC
notes: humanized, IgG1-YTE/kappa
Broadly, the EC50 is the concentration that produces a half-maximal response. Low readings indicate a more potent agent, high ones a less potent agent. On to B1, for which the EC50 in assay [1] was 1.02 nM.

B2: hu179-33 (antibody, human IgG1, kappa, V domains shown)
VH: EVQLVQSGAEVKKPGSSVKVSCKASGYTFSNYLIEWVRQAPGQGLEWIGVIDPGVGDTNYNENFKGRATLTADKSTSTAYIELSSLRSEDTAVYYCAREDNTGTAFDYWGQGTTVTVSS
VL: SIVMTQTPLSLSVTPGQPASISCKASQSVSSDVTWYLQKPGQSPQLLIYYVSEHYTGVPDRFSGSGYGTDFTLKISRVEAEDVGVYYCQQHHRFPLTFGQGTKLEIKR
B2: in the assay with native TSLP, the “IC50 of inhibiting the proliferation of BaF3-TLSPR/IL7R cells induced by native TSLP” value was found to be 0.0228 nM. Besides, the “IC50 of inhibiting TSLP-induced proliferation of BaF3 cells overexpressing TSLPR/IL7R” value in assay [2] worked out at 0.409 nM.

B3: AMG157 (antibody, human IgG2, lambda, V domains shown)
VH: QMQLVESGGGVVQPGRSLRLSCAASGFTFRTYGMHWVRQAPGKGLEWVAVIWYDGSNKHYADSVKGRFTITRDNSKNTLNLQMNSLRAEDTAVYYCARAPQWELVHEAFDIWGQGTMVTVSS
VL: SYVLTQPPSVSVAPGQTARITCGGNNLGSKSVHWYQQKPGQAPVLVVYDDSDRPSWIPERFSGSNSGNTATLTISRGEAGDEADYYCQVWDSSSDHVVFGGGTKLTVLG
Turning to B3, the “IC50 of inhibiting TSLP-induced proliferation of BaF3 cells overexpressing TSLPR/IL7R” value in assay [2] stood at 0.573 nM.

B4: hu119-03 (antibody, human IgG1, kappa)
heavy: EVQLVQSGAEVKKPGSSVKVSCKASGFTFSTYNMHWVKHAPGQGLEWIGAIYPGNGETSYNQKFKDRATLTVDKSTSTAYMELSSLRSEDTAVYYCAREDDYGEGYFDVWGQGTTVTVSSASTKGPSVFPLAPSSKSTSGGTAALGCLVKDYFPEPVTVSWNSGALTSGVHTFPAVLQSSGLYSLSSVVTVPSSSLGTQTYICNVNHKPSNTKVDKKVEPKSCDKTHTCPPCPAPELLGGPSVFLFPPKPKDTLYITREPEVTCVVVDVSHEDPEVKFNWYVDGVEVHNAKTKPREEQYNSTYRVVSVLTVLHQDWLNGKEYKCKVSNKALPAPIEKTISKAKGQPREPQVYTLPPSRDELTKNQVSLTCLVKGFYPSDIAVEWESNGQPENNYKTTPPVLDSDGSFFLYSKLTVDKSRWQQGNVFSCSVMHEALHNHYTQKSLSLSPGK
light: DIVMTQSPDSLAVSLGERATINCRASESVDNSGLSFMHWYQQKPGQPPKLLIYRASNLGSGVPDRFSGSGSGTDFTLTISSLQAEDVAVYYCQQINTDPLTFGQGTKLEIKRTVAAPSVFIFPPSDEQLKSGTASVVCLLNNFYPREAKVQWKVDNALQSGNSQESVTEQDSKDSTYSLSSTLTLSKADYEKHKVYACEVTHQGLSSPVTKSFNRGEC
notes: humanized, IgG1-YTE/kappa
In the case of B4, the 50% effective concentration (EC50) in assay [1] is 0.159 nM.

B5: hu119-11 (antibody, human IgG1, kappa, V domains shown)
VH: EVQLVQSGAEVKKPGSSVKVSCKASGFTFSTYNMHWVKHAPGQGLEWIGAIYPGNGETSYNQKFKDRATLTVDKSTSTAYMELSSLRSEDTAVYYCAREDDYGEGYFDVWGQGTTVTVSS
VL: DIVMTQSPDSLAVSLGERATINCRASESVDNSGLSFMHWYQQKPGQPPKLLLYRASNLGSGIPDRFSGSGSGTDFTLTISSLQAEDVAVYYCQQINTDPLTFGQGTKLEIKR
notes: humanized, IgG1-YTE/kappa
For the molecule B5, the concentration giving a half-maximal response (EC50) in assay [1] was 0.174 nM.

B6: hu119-07 (antibody, human IgG1, kappa)
heavy: EVQLVQSGAEVKKPGSSVKVSCKASGFTFSTYNMHWVKHAPGQGLEWIGAIYPGNGETSYNQKFKDRATLTVDKSTSTAYMELSSLRSEDTAVYYCAREDDYGEGYFDVWGQGTTVTVSSASTKGPSVFPLAPSSKSTSGGTAALGCLVKDYFPEPVTVSWNSGALTSGVHTFPAVLQSSGLYSLSSVVTVPSSSLGTQTYICNVNHKPSNTKVDKKVEPKSCDKTHTCPPCPAPELLGGPSVFLFPPKPKDTLYITREPEVTCVVVDVSHEDPEVKFNWYVDGVEVHNAKTKPREEQYNSTYRVVSVLTVLHQDWLNGKEYKCKVSNKALPAPIEKTISKAKGQPREPQVYTLPPSRDELTKNQVSLTCLVKGFYPSDIAVEWESNGQPENNYKTTPPVLDSDGSFFLYSKLTVDKSRWQQGNVFSCSVMHEALHNHYTQKSLSLSPGK
light: DIVLTQSPDSLAVSLGERATINCRASESVDNSGLSFMHWYQQKPGQPPKLLIYRASNLGSGVPDRFSGSGSGTDFTLTISSLQAEDVAVYYCQQINTDPLTFGQGTKLEIKRTVAAPSVFIFPPSDEQLKSGTASVVCLLNNFYPREAKVQWKVDNALQSGNSQESVTEQDSKDSTYSLSSTLTLSKADYEKHKVYACEVTHQGLSSPVTKSFNRGEC
notes: humanized, IgG1-YTE/kappa
Turning to B6, in assay [1], the EC50 worked out at 0.213 nM.

B7: hu3-13 (antibody, human IgG1, kappa, V domains shown)
VH: EVQLVQSGAEVKKPGASVKVSCKASGYTFTDDYMNWVRQAPGQRLEWMGIISPYNGGTSYNQKFKGRVTLTVDKSASTAYMELSSLRSEDTAVYYCAREDYDYDGYAMDYWGQGTTVTVSS
VL: EIVLTQSPATLSLSPGERATLSCRASSSVSYMHWYQQKPGQAPRPWIYATSNLASGVPARFSGSGSGTSYTLTISRLEPEDFAVYYCQQSDSGREFGGGTKVEIKR
With B7, in the assay with native TSLP, the “IC50 of inhibiting the proliferation of BaF3-TLSPR/IL7R cells induced by native TSLP” value amounted to 0.289 nM. In addition, the “IC50 of inhibiting TSLP-induced proliferation of BaF3 cells overexpressing TSLPR/IL7R” value in assay [2] is 0.444 nM.

B8: hu199-36 (antibody, human IgG1, kappa, V domains shown)
VH: EVQLVQSGAEVKKPGASVKVSCKASGYTFTTYWMHWVKQAPGQGLEWMGMIDPSDSETTLIQKFKDKVTLTVDKSTSTAYMELSSLRSEDTAVYYCARTLDGYYDYWGQGTTVTVSS
VL: DIQMTQSPSSLSASVGDRVTITCRASENIYSYLAWYQQKPGKSPQLLVYFAKTLAEGVPSRFSGSVSGTQFTLTISSLQPEDFATYYCQHHYGTPWTFGGGTKVEIKR
Turning to B8, the “IC50 of inhibiting TSLP-induced proliferation of BaF3 cells overexpressing TSLPR/IL7R” value in assay [2] is 0.476 nM.

B9: hu119-13 (antibody, human IgG1, kappa, V domains shown)
VH: EVQLVQSGAEVKKPGSSVKVSCKASGFTFSTYNMHWVKHAPGQGLEWIGAIYPGNGETSYNQKFKDRATLTVDKSTSTAYMELSSLRSEDTAVYYCAREDDYGEGYFDVWGQGTTVTVSS
VL: EIVLTQSPATLSLSPGERATLSCRASESVDNSGLSFMHWYQQKPGQAPRLLIYRASNLGSGIPARFSGSGSGTDFTLTISSLEPEDFAVYYCQQINTDPLTFGQGTKLEIKR
notes: humanized, IgG1-YTE/kappa
As for B9, the midpoint of the response in assay [1], the EC50, lay at 0.344 nM.

B10: hu119-18 (antibody, human IgG1, kappa)
heavy: EVQLVQSGAEVKKPGSSVKVSCKASGFTFSTYNMHWVKHAPGQGLEWIGAIYPGNGETSYNQKFKDRATLTVDKSTSTAYMELSSLRSEDTAVYYCAREDDYGEGYFDVWGQGTTVTVSSASTKGPSVFPLAPSSKSTSGGTAALGCLVKDYFPEPVTVSWNSGALTSGVHTFPAVLQSSGLYSLSSVVTVPSSSLGTQTYICNVNHKPSNTKVDKKVEPKSCDKTHTCPPCPAPELLGGPSVFLFPPKPKDTLYITREPEVTCVVVDVSHEDPEVKFNWYVDGVEVHNAKTKPREEQYNSTYRVVSVLTVLHQDWLNGKEYKCKVSNKALPAPIEKTISKAKGQPREPQVYTLPPSRDELTKNQVSLTCLVKGFYPSDIAVEWESNGQPENNYKTTPPVLDSDGSFFLYSKLTVDKSRWQQGNVFSCSVMHEALHNHYTQKSLSLSPGK
light: EIVLTQSPATLSLSPGERATLSCRASESVDNSGLSFMHWYQQKPGQPPRLLLYRASNLGSGIPARFSGSGSGTDFTLTISSLEPEDFAVYYCQQINTDPLTFGQGTKLEIKRTVAAPSVFIFPPSDEQLKSGTASVVCLLNNFYPREAKVQWKVDNALQSGNSQESVTEQDSKDSTYSLSSTLTLSKADYEKHKVYACEVTHQGLSSPVTKSFNRGEC
notes: humanized, IgG1-YTE/kappa
The molecule B10 had a concentration giving a half-maximal response (EC50) in assay [1] of 0.345 nM.

B11: hu119-30 (antibody, human IgG1, kappa, V domains shown)
VH: EAQLVQSGAEVKKPGSSVKVSCKASGFTFSTYNMHWVRQAPGQGLEWIGAIYPGNGETSYNQKFKDRATLTVDKSTRTAYMELSSLRSEDTAVYYCAREDDYGEGYFDVWGQGTTVTVSS
VL: DIVLTQSPATLSLSPGERATLSCRASESVDSSGLSFMHWYQQKPGQPPRLLLYRASNLGSGIPARFSGSGSGTDFTLTISSLEPEDFAVYYCQQINTDPLTFGQGTKLEIKR
On to B11, for which, in the assay with native TSLP, the “IC50 of inhibiting the proliferation of BaF3-TLSPR/IL7R cells induced by native TSLP” value came to 1.53 nM. Also, the “IC50 of inhibiting TSLP-induced proliferation of BaF3 cells overexpressing TSLPR/IL7R” value in assay [2] was 0.43 nM.
